Test results as given in PMC2873925.

How the values were obtained:
[1] = biological target: Neisseria meningitidis Opc protein (outer membrane adhesin), on acapsulate Opc+ bacteria of serogroup A strain C751 (Neisseria meningitidis serogroup A strain C751) (UniProt Q7DDI3)
[2] = biological target: Neisseria meningitidis Opc protein, on capsulate Opc+ bacteria of serogroup B strain MC58 (Neisseria meningitidis serogroup B strain MC58)
[3] = biological target: Neisseria meningitidis Opc protein (outer membrane adhesin), on acapsulate Opc+ bacteria of serogroup A strain C751 (Neisseria meningitidis serogroup A strain C751) (UniProt Q7DDI3); assay: depletion from serum by sequential adsorption with whole bacteria, immuno-dot blot of the serum; a serum sample adsorbed sequentially with three fresh live bacterial suspensions, one hour each; remaining activated Vn (mAb 8E6), total Vn and Fn (polyclonal antibodies) by immuno-dot blot and densitometry
[4] = biological target: Neisseria meningitidis Opc protein, on capsulate Opc+ bacteria of serogroup B strain MC58 (Neisseria meningitidis serogroup B strain MC58); assay: as above

fibronectin (human), of normal human serum and purified plasma fibronectin, P02751 32-2477 (natural protein), sequence (P02751 32-2477): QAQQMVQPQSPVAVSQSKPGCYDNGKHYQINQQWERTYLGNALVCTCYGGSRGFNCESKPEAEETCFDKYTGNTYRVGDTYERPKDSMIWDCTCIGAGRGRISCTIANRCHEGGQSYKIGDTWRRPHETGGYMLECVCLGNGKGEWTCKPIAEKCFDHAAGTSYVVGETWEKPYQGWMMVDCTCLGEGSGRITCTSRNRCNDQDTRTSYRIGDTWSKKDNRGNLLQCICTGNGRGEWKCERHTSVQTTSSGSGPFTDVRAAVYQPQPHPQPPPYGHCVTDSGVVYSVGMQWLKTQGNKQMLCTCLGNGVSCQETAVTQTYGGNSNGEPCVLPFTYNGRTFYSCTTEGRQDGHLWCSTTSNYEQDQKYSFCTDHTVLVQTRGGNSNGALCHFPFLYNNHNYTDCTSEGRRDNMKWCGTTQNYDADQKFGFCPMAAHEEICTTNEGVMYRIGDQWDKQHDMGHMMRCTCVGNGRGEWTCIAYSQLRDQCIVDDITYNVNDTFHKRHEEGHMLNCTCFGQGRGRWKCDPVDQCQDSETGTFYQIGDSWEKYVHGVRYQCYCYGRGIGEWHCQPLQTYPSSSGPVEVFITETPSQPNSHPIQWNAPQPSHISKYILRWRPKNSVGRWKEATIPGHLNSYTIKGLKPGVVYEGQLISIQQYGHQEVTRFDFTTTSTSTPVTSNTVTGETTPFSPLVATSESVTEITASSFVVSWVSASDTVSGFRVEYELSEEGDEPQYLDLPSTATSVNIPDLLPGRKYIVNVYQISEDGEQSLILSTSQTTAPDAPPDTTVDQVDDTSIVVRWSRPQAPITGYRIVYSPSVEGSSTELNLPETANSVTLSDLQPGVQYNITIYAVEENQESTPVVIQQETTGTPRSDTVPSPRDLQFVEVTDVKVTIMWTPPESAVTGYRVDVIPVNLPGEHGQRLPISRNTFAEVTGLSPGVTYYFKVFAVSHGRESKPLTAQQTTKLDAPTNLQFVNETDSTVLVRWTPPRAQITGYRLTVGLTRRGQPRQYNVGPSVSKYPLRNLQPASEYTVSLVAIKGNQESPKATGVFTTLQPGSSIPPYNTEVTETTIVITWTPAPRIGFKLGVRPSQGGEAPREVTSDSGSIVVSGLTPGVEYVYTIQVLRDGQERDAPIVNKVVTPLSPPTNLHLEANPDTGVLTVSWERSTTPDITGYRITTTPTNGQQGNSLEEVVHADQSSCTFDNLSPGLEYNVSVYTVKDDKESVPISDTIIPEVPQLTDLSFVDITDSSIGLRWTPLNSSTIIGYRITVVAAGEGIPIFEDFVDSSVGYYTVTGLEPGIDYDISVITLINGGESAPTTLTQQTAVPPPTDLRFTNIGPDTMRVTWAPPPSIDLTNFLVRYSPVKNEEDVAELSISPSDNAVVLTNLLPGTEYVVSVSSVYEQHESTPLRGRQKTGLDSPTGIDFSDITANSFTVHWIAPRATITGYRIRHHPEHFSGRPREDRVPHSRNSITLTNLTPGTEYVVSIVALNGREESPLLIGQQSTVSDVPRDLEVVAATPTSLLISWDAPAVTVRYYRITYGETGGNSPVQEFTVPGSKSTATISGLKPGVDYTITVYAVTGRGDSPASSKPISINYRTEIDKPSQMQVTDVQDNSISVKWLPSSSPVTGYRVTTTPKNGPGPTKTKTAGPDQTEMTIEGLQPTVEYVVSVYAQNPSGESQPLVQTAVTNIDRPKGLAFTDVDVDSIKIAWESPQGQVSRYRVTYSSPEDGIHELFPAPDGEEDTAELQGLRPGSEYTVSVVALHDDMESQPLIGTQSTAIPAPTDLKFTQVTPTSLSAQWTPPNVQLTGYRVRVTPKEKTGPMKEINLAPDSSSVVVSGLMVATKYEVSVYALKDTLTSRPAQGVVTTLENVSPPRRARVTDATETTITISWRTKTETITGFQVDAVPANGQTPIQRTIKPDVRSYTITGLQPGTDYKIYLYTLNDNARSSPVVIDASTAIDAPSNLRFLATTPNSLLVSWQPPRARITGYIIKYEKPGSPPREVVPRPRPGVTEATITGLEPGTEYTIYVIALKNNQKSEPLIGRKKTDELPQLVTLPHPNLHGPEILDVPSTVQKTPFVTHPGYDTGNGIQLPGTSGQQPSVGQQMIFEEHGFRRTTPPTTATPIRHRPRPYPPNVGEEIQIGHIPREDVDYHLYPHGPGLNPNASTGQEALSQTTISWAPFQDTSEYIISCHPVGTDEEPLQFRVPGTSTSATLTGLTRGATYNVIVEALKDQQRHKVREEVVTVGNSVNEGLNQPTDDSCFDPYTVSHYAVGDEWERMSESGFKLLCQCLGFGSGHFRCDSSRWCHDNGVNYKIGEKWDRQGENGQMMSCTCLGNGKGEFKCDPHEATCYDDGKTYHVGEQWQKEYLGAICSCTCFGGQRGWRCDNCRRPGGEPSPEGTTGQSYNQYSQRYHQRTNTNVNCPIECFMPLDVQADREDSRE

Substance: VA-21S, synthetic peptide of vitronectin residues 48-68 sulphated at residues 56 and 59
- inhibition by VA-21S of VA-26S-mediated adhesion of C751 Opc+ Nm to HBMECs (data not illustrated) [1]: 80%
- inhibition by VA-21S of VA-26S-mediated invasion of HBMECs by C751 Opc+ Nm (data not illustrated) [1]: 100%
- inhibition by VA-21S of VA-26S-mediated adhesion of piliated capsulate Opc+ MC58 to HBMECs (data not illustrated) [2]: 40%
- inhibition by VA-21S of VA-26S-mediated invasion of HBMECs by piliated capsulate Opc+ MC58 (data not illustrated) [2]: > 80%

Substance: activated vitronectin (human), from normal human serum, purified by heparin-sepharose chromatography (natural protein)
- percent depleted from serum after two adsorptions [3]: > 75%
- percent depleted from serum after three adsorptions [4]: 81%

Substance: fibronectin (human), of normal human serum and purified plasma fibronectin, P02751 32-2477 (natural protein)
- percent depleted from serum after three adsorptions [3]: 20%

Substance: vitronectin of normal human serum (total Vn, detected with polyclonal anti-Vn) (natural protein)
- percent depleted from serum after three adsorptions [3]: 25%
